{
  "source": "paper PMC10572819",
  "key": {"[1]": {"assay": "Western blot, HEK-293 co-transfected with BAP31", "details": "glycan lost; control: WT-EpCAM"}, "[2]": {"assay": "Western blot, HEK-293 with BAP31 siRNA", "details": "glycan lost; control: WT-EpCAM"}},
  "data": [
    {"protein": "epithelial cell-adhesion molecule (EpCAM): N76/111/198A (protein) parent chain: MAPPQVLAFGLLLAAATATFAAAQEECVCENYKLAVNCFVNNNRQCQCTSVGAQNTVICSKLAAKCLVMKAEMNGSKLGRRAKPEGALQNNDGLYDPDCDESGLFKAKQCNGTSMCWCVNTAGVRRTDKDTEITCSERVRTYWIIIELKHKAREKPYDSKSLRTALQKEITTRYQLDPKFITSILYENNVITIDLVQNSSQKTQNDVDIADVAYYFEKDVKGESLFHSKKMDLTVNGEQLDLDPGQTLIYYVDEKAPEFSMQGLKAGVIAVIVVVVIAVVAGIVVLVISRKKRMAKYEKAEIKEMGEMHRELNA", "values": [
      {"measurement": "other: rise in protein level on BAP31 overexpression", "setting": "[1]", "value": "abolishes"},
      {"measurement": "other: fall in protein level on BAP31 knockdown", "setting": "[2]", "value": "abolishes"}
    ]}
  ]
}
